Experimental data from publication PMC4578157.

molecular target: Duffy antigen receptor for chemokines (DARC) (human) (UniProt Q16570); test: SPR

Going from “HlgA (from UniProt P0A074 30-309) (natural protein)” to “HlgC (from UniProt Q07227 30-315) (natural protein)”, the Kd rises from 29.2 nM to 229 nM (7.8-fold).

“LukE (from UniProt O54081 29-314) (natural protein)” was tested, and the Kd was 56.4 nM.
